Source: US20220119489A1, “COMPOSITIONS AND METHODS FOR TREATING MUSCULAR DYSTROPHY AND RELATED DISORDERS” (CHILDREN'S MEDICAL CENTER CORPORATION, priority 2019, published 2022)

Target: T1, CD82 polypeptide (human) (human)
T1 sequence (P27701 whole entry, looked up): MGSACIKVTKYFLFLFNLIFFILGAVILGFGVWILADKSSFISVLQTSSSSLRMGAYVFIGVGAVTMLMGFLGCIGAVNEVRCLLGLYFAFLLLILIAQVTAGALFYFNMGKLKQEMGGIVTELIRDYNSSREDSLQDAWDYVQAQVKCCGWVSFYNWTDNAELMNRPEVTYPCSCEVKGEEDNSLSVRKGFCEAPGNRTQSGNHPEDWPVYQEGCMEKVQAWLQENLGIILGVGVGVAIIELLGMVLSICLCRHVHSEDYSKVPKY
Assay: IP with anti CD82 antibodies, human myotubes, mass spectrometry

B1: Eh domain containing 1 (protein)
chain: MFSWVSKDARRKKEPELFQTVAEGLRQLYAQKLLPLEEHYRFHEFHSPALEDADFDNKPMVLLVGQYSTGKTTFIRHLIEQDFPGMRIGPEPTTDSFIAVMHGPTEGVVPGNALVVDPRRPFRKLNAFGNAFLNRFMCAQLPNPVLDSISIIDTPGILSGEKQRISRGYDFAAVLEWFAERVDRIILLFDAHKLDISDEFSEVIKALKNHEDKIRVVLNKADQIETQQLMRVYGALMWSLGKIINTPEVVRVYIGSFWSHPLLIPDNRKLFEAEEQDLFKDIQSLPRNAALRKLNDLIKRARLAKVHAYIISSLKKEMPNVFGKESKKKELVNNLGEIYQKIEREHQISPGDFPSLRKMQELLQTQDFSKFQALKPKLLDTVDDMLANDIARLMVMVRQEESLMPSQVVKGGAFDGTMNGPFGHGYGEGAGEGIDDVEWVVGKDKPTYDEIFYTLSPVNGKITGANAKKEMVKSKLPNTVLGKIWKLADVDKDGLLDDEEFALANHLIKVKLEGHELPADLPPHLVPPSKRRHE
Total: 3
Unique: 3

B2: PRDX2_HUMAN (enzyme)
chain: ASGNARIGKPAPDFKATAVVDGAFKEVKLSDYKGKYVVLFFYPLDFTFVCPTEIIAFSNRAEDFRKLGCEVLGVSVDSQFTHLAWINTPRKEGGLGPLNIPLLADVTRRLSEDYGVLKTDEGIAYRGLFIIDGKGVLRQITVNDLPVGRSVDEALRLVQAFQYTDEHGEVCPAGWKPGSDTIKPNVDDSKEYFSKHN
Total: 3
Unique: 3

B3: EHD2_HUMAN (protein)
chain: MFSWLKRGGARGQQPEAIRTVTSALKELYRTKLLPLEEHYRFGAFHSPALEDADFDGKPMVLVAGQYSTGKTSFIQYLLEQEVPGSRVGPEPTTDCFVAVMHGDTEGTVPGNALVVDPDKPFRKLNPFGNTFLNRFMCAQLPNQVLESISIIDTPGILSGAKQRVSRGYDFPAVLRWFAERVDLIILLFDAHKLEISDEFSEAIGALRGHEDKIRVVLNKADMVETQQLMRVYGALMWALGKVVGTPEVLRVYIGSFWSQPLLVPDNRRLFELEEQDLFRDIQGLPRHAALRKLNDLVKRARLVRVHAYIISYLKKEMPSVFGKENKKKQLILKLPVIFAKIQLEHHISPGDFPDCQKMQELLMAHDFTKFHSLKPKLLEALDEMLTHDIAKLMPLLRQEELESTEVGVQGGAFEGTHMGPFVERGPDEAMEDGEEGSDDEAEWVVTKDKSKYDEIFYNLAPADGKLSGSKAKTWMVGTKLPNSVLGRIWKLSDVDRDGMLDDEEFALASHLIEAKLEGHGLPANLPRRLVPPSKRRHKGSAE
Total: 3
Unique: 3

B4: Annexin A1 (human) (protein)
chain: AMVSEFLKQAWFIENEEQEYVQTVKSSKGGPGSAVSPYPTFNPSSDVAALHKAIMVKGVDEATIIDILTKRNNAQRQQIKAAYLQETGKPLDETLKKALTGHLEEVVLALLKTPAQFDADELRAAMKGLGTDEDTLIEILASRTNKEIRDINRVYREELKRDLAKDITSDTSGDFRNALLSLAKGDRSEDFGVNEDLADSDARALYEAGERRKGTDVNVFNTILTTRSYPQLRRVFQKYTKYSKHDMNKVLDLELKGDIEKCLTAIVKCATSKPAFFAEKLHQAMKGVGTRHKALIRIMVSRSEIDMNDIKAFYQKMYGISLCQAILDETKGDYEKILVALCGGN
Total: 3
Unique: 3

B5: TGF beta receptor 1 (receptor)
chain: LQCFCHLCTKDNFTCVTDGLCFVSVTETTDKVIHNSMCIAEIDLIPRDRPFVCAPSSKTGSVTTTYCCNQDHCNKIELPTTVKSSPGLGPVELAAVIAGPVCFVCISLMLMVYICHNRTVIHHRVPNEEDPSLDRPFISEGTTLKDLIYDMTTSGSGSGLPLLVQRTIARTIVLQESIGKGRFGEVWRGKWRGEEVAVKIFSSREERSWFREAEIYQTVMLRHENILGFIAADNKDNGTWTQLWLVSDYHEHGSLFDYLNRYTVTVEGMIKLALSTASGLAHLHMEIVGTQGKPAIAHRDLKSKNILVKKNGTCCIADLGLAVRHDSATDTIDIAPNHRVGTKRYMAPEVLDDSINMKHFESFKRADIYAMGLVFWEIARRCSIGGIHEDYQLPYYDLVPSDPSVEEMRKVVCEQKLRPNIPNRWQSCEALRVMAKIMRECWYANGAARLTALRIKKTLSQLSQQEGIKM
Total: 3
Unique: 3

B6: EHD4_HUMAN (protein)
chain: MFSWMGRQAGGRERAGGADAVQTVTGGLRSLYLRKVLPLEEAYRFHEFHSPALEDADFENKPMILLVGQYSTGKTTFIRYLLEQDFPGMRIGPEPTTDSFIAVMYGETEGSTPGNALVVDPKKPFRKLSRFGNAFLNRFMCSQLPNQVLKSISVIDSPGILSGEKQRISRGYDFCQVLQWFAERVDRIILLFDAHKLDISDEFSEAIKAFRGQDDKIRVVLNKADQVDTQQLMRVYGALMWSLGKVINTPEVLRVYIGSFWAQPLQNTDNRRLFEAEAQDLFRDIQSLPQKAAVRKLNDLIKRARLAKVHAYIISYLKKEMPSVFGKENKKRELISRLPEIYIQLQREYQISAGDFPEVKAMQEQLENYDFTKFHSLKPKLIEAVDNMLSNKISPLMNLISQEETSTPTQLVQGGAFDGTTEGPFNQGYGEGAKEGADEEEWVVAKDKPVYDELFYTLSPINGKISGVNAKKEMVTSKLPNSVLGKIWKLADCDCDGMLDEEEFALAKHLIKIKLDGYELPSSLPPHLVPPSHRKSLPKAD
Total: 3
Unique: 3
